Assay in all cases: Kinase Profiling Assay
Holding throughout (format): biochemical
Details in all cases: for % activity: 100 μM

The target of test [1] is T1, PKD2(h) (Homo sapiens, UniProt Q9BZL6).
T1 sequence (Q9BZL6 1-878): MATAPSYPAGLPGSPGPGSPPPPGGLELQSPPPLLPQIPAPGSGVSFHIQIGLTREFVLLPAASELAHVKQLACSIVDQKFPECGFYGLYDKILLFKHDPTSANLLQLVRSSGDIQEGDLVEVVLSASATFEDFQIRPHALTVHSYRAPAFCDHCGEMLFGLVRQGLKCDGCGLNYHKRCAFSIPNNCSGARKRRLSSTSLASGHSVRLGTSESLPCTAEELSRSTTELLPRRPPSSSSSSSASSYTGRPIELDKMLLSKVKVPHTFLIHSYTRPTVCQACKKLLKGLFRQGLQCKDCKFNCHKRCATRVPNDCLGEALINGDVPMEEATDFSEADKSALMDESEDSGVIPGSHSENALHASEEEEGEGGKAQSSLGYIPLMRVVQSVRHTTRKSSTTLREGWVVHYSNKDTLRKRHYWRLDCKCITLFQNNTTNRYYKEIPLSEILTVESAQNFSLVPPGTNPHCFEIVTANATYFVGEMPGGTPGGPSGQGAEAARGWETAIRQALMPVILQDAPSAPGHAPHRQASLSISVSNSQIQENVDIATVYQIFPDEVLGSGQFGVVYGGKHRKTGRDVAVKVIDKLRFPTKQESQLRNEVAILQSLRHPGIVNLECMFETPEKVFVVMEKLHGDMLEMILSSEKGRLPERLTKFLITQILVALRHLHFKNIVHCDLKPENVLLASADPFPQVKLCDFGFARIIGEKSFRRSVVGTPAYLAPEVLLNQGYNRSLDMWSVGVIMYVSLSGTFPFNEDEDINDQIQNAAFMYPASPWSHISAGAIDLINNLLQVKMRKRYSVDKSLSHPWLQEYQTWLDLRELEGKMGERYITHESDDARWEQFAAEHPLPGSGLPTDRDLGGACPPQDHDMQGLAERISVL

In test [2] the target is T2, ULK3(h) (Homo sapiens, UniProt Q6PHR2).
T2 sequence (Q6PHR2 1-472): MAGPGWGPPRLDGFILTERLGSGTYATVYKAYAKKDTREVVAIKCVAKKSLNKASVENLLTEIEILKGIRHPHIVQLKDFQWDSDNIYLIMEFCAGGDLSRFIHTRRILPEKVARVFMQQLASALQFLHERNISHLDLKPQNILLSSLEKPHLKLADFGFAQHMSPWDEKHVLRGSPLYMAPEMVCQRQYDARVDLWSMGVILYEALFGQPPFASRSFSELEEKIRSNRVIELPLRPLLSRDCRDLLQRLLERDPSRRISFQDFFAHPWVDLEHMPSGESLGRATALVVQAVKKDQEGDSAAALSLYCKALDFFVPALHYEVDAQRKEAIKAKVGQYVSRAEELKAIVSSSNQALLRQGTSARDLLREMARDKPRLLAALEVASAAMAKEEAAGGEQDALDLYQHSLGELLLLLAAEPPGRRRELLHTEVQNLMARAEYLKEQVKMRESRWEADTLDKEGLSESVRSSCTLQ

Test [3] deals with T3, ALK4(h) (Homo sapiens, UniProt P36896).
T3 sequence (P36896 24-505): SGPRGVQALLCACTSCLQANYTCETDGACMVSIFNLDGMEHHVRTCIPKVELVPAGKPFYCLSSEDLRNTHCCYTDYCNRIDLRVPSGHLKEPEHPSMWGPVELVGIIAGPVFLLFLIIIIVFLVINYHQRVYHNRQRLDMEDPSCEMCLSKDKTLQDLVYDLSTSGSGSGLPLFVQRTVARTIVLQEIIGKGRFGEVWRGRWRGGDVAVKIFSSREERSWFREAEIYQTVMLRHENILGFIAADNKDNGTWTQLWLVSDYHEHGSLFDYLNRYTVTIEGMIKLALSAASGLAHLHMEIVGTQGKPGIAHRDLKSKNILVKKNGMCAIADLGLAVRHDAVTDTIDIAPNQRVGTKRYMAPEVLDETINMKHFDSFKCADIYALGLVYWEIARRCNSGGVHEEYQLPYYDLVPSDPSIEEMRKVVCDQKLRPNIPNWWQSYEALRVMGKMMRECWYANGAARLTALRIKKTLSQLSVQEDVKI

Test [4] deals with T4, GCK(h) (Homo sapiens, UniProt Q12851).
T4 sequence (Q12851 1-820): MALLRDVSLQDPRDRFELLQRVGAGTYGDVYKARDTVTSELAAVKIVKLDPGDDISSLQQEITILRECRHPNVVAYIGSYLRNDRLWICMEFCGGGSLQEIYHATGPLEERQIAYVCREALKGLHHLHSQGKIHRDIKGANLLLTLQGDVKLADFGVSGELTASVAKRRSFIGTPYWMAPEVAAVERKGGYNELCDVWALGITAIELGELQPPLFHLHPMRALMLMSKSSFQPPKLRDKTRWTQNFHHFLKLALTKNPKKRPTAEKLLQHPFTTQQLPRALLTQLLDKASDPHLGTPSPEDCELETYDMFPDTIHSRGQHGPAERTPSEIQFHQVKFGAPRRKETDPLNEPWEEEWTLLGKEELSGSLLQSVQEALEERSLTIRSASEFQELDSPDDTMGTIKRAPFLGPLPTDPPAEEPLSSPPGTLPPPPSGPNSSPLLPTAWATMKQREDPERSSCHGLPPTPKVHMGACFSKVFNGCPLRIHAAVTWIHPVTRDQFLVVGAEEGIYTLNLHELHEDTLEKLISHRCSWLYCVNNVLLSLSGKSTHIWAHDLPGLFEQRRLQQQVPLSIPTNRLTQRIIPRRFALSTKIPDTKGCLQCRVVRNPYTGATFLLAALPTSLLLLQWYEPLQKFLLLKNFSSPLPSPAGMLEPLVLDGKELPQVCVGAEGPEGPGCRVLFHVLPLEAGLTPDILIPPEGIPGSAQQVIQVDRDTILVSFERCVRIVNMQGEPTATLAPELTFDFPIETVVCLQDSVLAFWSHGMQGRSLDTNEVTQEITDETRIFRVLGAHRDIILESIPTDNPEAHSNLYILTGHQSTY

The text below walks through data of patent US10087225B2, “Formulation of MK2 inhibitor peptides” (MOERAE MATRIX, INC., priority 2015, dated 2018).

For the substance H-YARAAARQARAKALARQLGVAA-OH [MMI-0100], the activity at 100 µM turned out to be 84% in test [1], 142% in test [2], 124% in test [3] and 98% in test [4].

For the substance “HRRIKAWLKKIKALARQLGVAA (Mammalian) [MMI-0500]”, the “% activity” value amounted to 10% in test [1], 177% in test [2], 81% in test [3] and 30% in test [4].

In the case of “YARAAARQARAKALNRQLGVA (Mammalian) [MMI-0200]”, the “% activity” value in test [1] was 78%; in test [2] it was 164%; in test [3] it was 152%; in test [4], 99%.
